# Measured values reported in the nanobody polyreactivity screen of Harvey et al. (2022).
# Experiment: yeast display, Sf9 membrane polyspecificity reagent, FACS + sequencing; frameworks hold sequencing errors
# How it was run: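 Nanobodies came from a synthetic yeast display library in Saccharomyces cerevisiae BJ5465, induced with galactose for 36–48 hours and stained for 1 hour at 4 °C with 10% biotinylated, detergent-solubilized Sf9 membrane reagent. Cells were enriched on streptavidin microbeads and then FACS-sorted, with low and high (top ~1%) gates set on anti-HA fluorescence for expression and streptavidin fluorescence for reagent binding. Each polyreactivity label reflects the gate a clone came from. Genes were amplified by colony PCR, sequenced by MiSeq 2 × 250 and filtered by CDR length.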
row,Sequence,polyreactivity (PSR sort gate)
1,QVQLVESGGGLVQAGGSLRLSCAASGLIFAGYSMGWYRLAPGKERELVAAITWRGGRTYADSVKGRFTISRDNAKNTVYLQMNSLKPEDTAVYYCAVRRWGTSFVEDDYWGQGTQVTVSS,low polyreactivity
2,QVQLVESGGGLVQAGGSLRLSCAASGLIFAPYAMGLYRQAPGKERELVAAISFRGGSTYYADSVKGRFTISRDNAKNTVYFQMNSLKPEDTAVYYSAADWLYDYGEYYYWGQGTQVTVSS,high polyreactivity
3,QVQLVESGGGLVQAGGSLRLSCAASGLIFARNALGWYRQAPGKERELVAAISWRSGRTYYADSVKGRFTISRDNAKNTVYLQMNSLKPEDTAVYYCAATSRTSWYGYWGQGTQVTVSS,high polyreactivity
4,QVQLVESGGGLVQAGGSLRLSCAASGLIFARNAMGWYRQSPGKERELVAAITRGGSTYYADSVKGRFTISRDNAKNTVYLQMNSLKPEDTAVYYCNADYAYNSYGYRFYYWGQGTQVTVSS,high polyreactivity
5,QVQLVESGGGLVQAGGSLRLSCAASGLIFAVYAMGWYRQAPGKERELVAGISASAASTYYADSVKGRFTISRDNAKNTVYLQMNSLKPEDTAVYYCVAVLPARGYYWGQGTQVTVSS,high polyreactivity
6,QVQLVESGGGLVQAGGSLRLSCAASGLIFDDYAMGWYRQAPGKERELVAAISWSDGTTYYADSVKGRFTISRDNAKNTVYLQMNSLKPEDTAVYYCAAEEVSGWEYDYWGQGTQVTVSS,high polyreactivity
7,QVQLVESGGGLVQAGGSLRLSCAASGLIFDGYAMGWYRQAPGKERELVAAISRSGSRTYYADSVKGRFTISRDNAKNTVYLQMNSLKPEDTAVYYCAADAYNYPELDYWGQGTQVTVSS,high polyreactivity
8,QVQLVESGGGLVQAGGSLRLSCAASGLIFDKYAMGWYRQAPGKERELVAAITRSSGTTYYADSVKGRFTISRDNAKNTVYLQMNSLKPEETAVYYCAARFIWGYWGVGSYYWGQATQVTVSS,low polyreactivity
9,QVQLVESGGGLVQAGGSLRLSCAASGLIFDRSAMGWYRPAPGKERELDAASRWTGASSTYYADSVKGRFTISRDNAKNTVYLQMNSLKPEDTAVYYCNADSPYSFATGPYVLDSDYWGQGTQVTVSS,low polyreactivity
10,QVQLVESGGGLVQAGGSLRLSCAASGLIFDVNTMGWYRQAPGKERELVAAITGSGGRTYYADSVKGRFTISRDNGKNTVYLQMNSLKPEDTAFYYCNADTSYVGFDYWGQGTQVTVSS,low polyreactivity
11,QVQLVESGGGLVQAGGSLRLSCAASGLIFDVYAMGWYRQAPGKERELVAVISRGGSTNYADSVKGRFTISRDNANNTVYLQMNSLKPEDTAVYYCAAGLVVSYPQNNYSVSFYARGYWGQGTQVTVSS,high polyreactivity
12,QVQLVESGGGLVQAGGSLRLSCAASGLIFDYYGMGWYRQAPGKEREFVAAINRSGGTTYYADSVKGRFTISRDNAKNTVYLQMNSLKPEDTAVYYCNADRGPAKLVYDPVIMDYWGQGTQVTVSS,low polyreactivity
13,QVQLVESGGGLVQAGGSLRLSCAASGLIFEVNVMGWYRQAPGTERELVAAITTGGGSTYYADSVKGRFTISRDNAKNTVYLQMNSLKPEDTAVYYCATDYSSYLYDYYTGVGGYEYWGQGTQVTVSS,low polyreactivity
14,QVQLVESGGGLVQAGGSLRLSCAASGLIFFSYAMGWYRQAPGKERELVAAISRRGGRTYYADSVKGRFTISRDNAKNTVYLQMNSLKPEDTAVYYCAADSGYVWYADDYWGQGTQVTVSS,low polyreactivity
15,QVQLVESGGGLVQAGGSLRLSCAASGLIFGGYAMGWYRQAPGKERELVAAISSSGGRTYYADSVKGRFTISRDNAKNTVYLQMNSLKPEDTAVYYCATRVHYRNDYWGQGTQVTVSS,high polyreactivity
16,QVQLVESGGGLVQAGGSLRLSCAASGLIFGKNAMGWYRQAPGKERELVAAISSGDSTYADSVKGRFTISRDNAKNTVYLQMNSLKPEDTAVYYCNAEVLRESYDRHPTTDYYWGQGTQVTVSS,low polyreactivity
17,QVQLVESGGGLVQAGGSLRLSCAASGLIFGPNAMGWYRQAPGKERELVAAITKSGDSTYYADSVKGRFTISRDNAKNTVYFQMNSLKPEDTAVYYCAADTTTGLYDYWGQGTQVTVSS,low polyreactivity
